Assay [1] concerns the target T1, Calmodulin (CaM) (UniProt P0DP23 1-149).
T1 construct: Calmodulin, full length; apo-CaM (5 mM EGTA) and holo-CaM (10 mM CaCl2) are the same protein; the assays tell them apart; Se-Met-substituted apo-CaM was used for anomalous signals in the structure determination; also called apo-CaM; Ca2+-free CaM; source: Escherichia coli, purified using chromatography techniques
Description: ITC; iTC200, room temperature, 20 mM Tris-HCl pH 7.5, 500 mM NaCl, 5 mM EGTA (apo-CaM, absence of calcium); 0.05-0.1 mM in the cell, 0.5-1.0 mM in the syringe. To be noted: both partners purified. In general terms: ITC needs no label: the signal is the heat of the interaction.

In assay [2] the target is T1, Calmodulin (CaM). The assay can be described thus: ITC; iTC200, room temperature, 20 mM Tris-HCl pH 7.5, 500 mM NaCl, 10 mM CaCl2 (holo-CaM, presence of calcium); 0.05-0.1 mM in the cell, 0.5-1.0 mM in the syringe. To be noted: both partners purified.

B1: AtBAG5-IQR (AtBAG5-long with Ile57, Gln58 and Arg62 substituted with alanine) (domain or fragment)
chain: NATAAAARAASGYASYRIRNLYKKISSINREANRVQSIIQRQETVDAIRSDEKERLRMNETLMALLLKLDSVPGLDPTIREARRKVSRKIVGMQEILDSISETKD
notes: AtBAG5, Arabidopsis thaliana, residues 49-153 (AtBAG5-long) with three conserved residues of the IQ motif changed to alanine; also called IQ motif mutant; AtBAG5-IQR mutant; source: Escherichia coli, purified using chromatography techniques
With B1, the Kd in the assay with Calmodulin (CaM) [1] was determined as 1.16 mM; with Calmodulin (CaM) [2], 7.14 µM.

In general, Kd refers to the free concentration of one partner at which half of the binding sites on the other are occupied at equilibrium, for simple one-to-one binding.

These data come from article PMC4990970 (Scientific Reports, 2016).
